assay: yeast display, Sf9 membrane polyspecificity reagent, FACS + sequencing; frameworks hold sequencing errors
In short: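 In a synthetic yeast display library (Saccharomyces cerevisiae BJ5465), nanobody expression was induced with galactose for 36–48 hours. FACS gates were set low and high (top ~1%) using anti-HA fluorescence for expression and streptavidin fluorescence for binding of the Sf9 membrane reagent. Each polyreactivity label is drawn from the gate of origin.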

Row | Sequence | polyreactivity (PSR sort gate)
1 | QVQLVESGGGLVQEGASLRLSCAASGFIFLQYAMGWYRQAPGKERELVAAITSGGGTNYADSVKGRFTISRDNAKNTVYLQMNSLKPEDTAVYYCAARTWPWVLGATQDDYWGQGTQVTVSS | low polyreactivity
2 | QVQLVESGGGLVQAGGSLRLSCAASGSIFIGYAMGWYRQAPGKERELVAAISNSGGRTYYADSVKGRFTISRDNAKNTVYLQMNSLKPEDTAVYYCAAEERYAYRYDYSGQGTQVTVSS | high polyreactivity
3 | QVQLVESGGGLVQAGGSLSLSCAASGSIFAQYAMGWYRQAPGKERELVATISSVGSTNYADSVKGRFTISRANAKNTVYLQMNSLKPEDTAVYYCAADYRHDTFSNEYDYWGQGTQVTVSS | low polyreactivity
4 | QVQLVESGGGLVQAGGSLRLICAASGRIFYHNAMGWYRQAPGKERELDAAITWSGGSTYYADSVKGRFTISRDNAKNTVYLQMNSLKPEDTAVYYCAALWLVNHYYPSQDYDYWGQGSQVTVSS | high polyreactivity
5 | QVQLVESGGGLVQAGGSLRLSCAASGSTFIFYAMGWYRQAPGKERELVASITSRAASTYYADSVKGRFTISRDIAKNTVYLQMNSLKPEDTAVYYCAATFSYTLFWWSSFLLYDYWGQGTQVTVSS | low polyreactivity
6 | QVQLVESGGGLVQAGGSLRLSCAASGITFGDYTMGWYRQAPGKERELVAGINWSGDGTYYADSVKGRFTISRDNAKNTVYLQMNSLKPEDTAVYYCAAETFYDYGGYDYWGQGTQVTVSS | low polyreactivity
7 | QVQLVESCGGLVQAGGSLRLSCAATGSTIRTYAMGWYRQAPGTERELVAAISRSGGRTYYADSVKGRFTISRDNAKNTVYLQMNSLTPEDTAVYYCAKVSQRRVDTSDYDYWGQGTQVTVSS | high polyreactivity
8 | QVQLVESGGGLVQAGGSLRLSCAASGSIFERYDMGWYRQAPGKERELVAAITSAGITYYADSVKGRFTISRDNAKNTVYLQMNSLKPEDTAVYYCAASYYYGYDYWGQGTQVTVSS | low polyreactivity
9 | QVQLVESGGGIVQAGGSLRLSCAASGRNFVRNAMGWYRQAPGKERELVAAISGGGGNTYYADSVKGRFTISRDNAKNTVYLQMYSLKPEDTAVYYCNALAYGYWYRYYYWGLGTQVTVSS | high polyreactivity
10 | QVQLVESGAGLVQAGGSLRLSCAASGRIFGYYAMGWYRQAPGQERELVATIRGGGSTNYADSVKGRFTISRDNAKNTVYLQMNSLKPEDTAVYVCAKPGAKWRGFDYWGQGTQVTLSS | low polyreactivity
11 | QVQLVESGGGLVQAGGSLRLSCAASGIIFGENAMGWYRQAPGKERELVAAINSVGSTYYADSVKGRFTISRDNAKNTVYLQMNSLKPEDTAVYYCNARLAKVRVKDDYWGQGTQVTVSS | low polyreactivity
12 | QVQLVESGGGLVQAGGSLRLSCAASGRIFTGYAMGWNRQAPGKERELVAAISRGGSTNYADSVKGRFTISRDNAKNSVYLQMNSLKPEDTAVYYCAAGVHWDRGDYWGQGTQVTVSS | low polyreactivity
13 | QVQLVESGGGLVQAGGSLRLSCAASGRTLTSNAMGWYRQAPGKERELVASITGSSSNTYYADSVKGRFTISRDNAKNTVYLQMNSLKPEDTAVYYCAAEVGFPWWRLDEYWGQGTQVTVSS | low polyreactivity
14 | QVQLVESGGGLVQAGGSLRLSCAASGRTFFWYVMGWYRKAPGKERELVATISYGGITYYADSVKGRFTISRDNAKNTVYLQMNSLKPEDTALYYCAAKPSRSLYYYWGQGTQVTVSS | high polyreactivity
15 | QVQLVESGGGLVQAGGSLRLSCAASGYTFTAYAMGWYRQAPGKERELVAAISKGGGSTYYADSVKGRFTISRDNAKNTVYLQMNSLKPEDTAVYYCAADTYQGVKYYYWGQGTQVTVSS | high polyreactivity
16 | QVQLVESGGGLVQAGGSLRLSCAASGSIFVYNAMGWYRQAPGKERELVAAIDTVGSTNYADSVKGRFTISRDNAKNTVYLQMNSLKPEDTAVYYCAVVTPYWSFYEQVIPSNYWGQGTQVTVSS | low polyreactivity
17 | QVQLVESGGGLVQAGGSLRLSCAASGRTSYINAMGWYRPAPGKERELVAAITVRAGRTYYADSVKGRFTISRDNANKTVYLQMNSLKPEDTAVYYCAAGVSEGSGDLYYWGQGTQVTVSS | low polyreactivity
18 | QVQLVESGGGLVQAGGSLRLSCAASGLTFGWYTMGWYRQAPGKERELVADITWSGGSTYYADSVKGRFTISRDNAKNTVYLQMNSLKPEDTAVYYCAVRYFVIPWYAYDYWGQGTQVTVSS | low polyreactivity
19 | QVQLVESGGGLVQAGGSLRLSCAASGNIIAYYAMGWSRQPPGKDRELVAAITDSGGNTFYADSVKGRFTISRDNAKNSVFLQMNSLKPEDTAVYYCAADPDCWGFVYPRYDYWGQGTQVTVSS | low polyreactivity
20 | QDQLVESGGGLDQAGGSLRLSCAASGRIFYPYTMGWYRQAPGKERELVAANTRSAASTHYADSVKGRFTISRDNAKNTVYLQMNSLKPEDTAVYYCAADDRGSSYGHFTVEYGYWGQGTQVTVSS | low polyreactivity
21 | QVQHVESGGGLVQAGGSLRLSCAASGRTFGWYTMGWYRQAPGKEREFVAAISSSDTSTYYADSVKGRFTISRDNAKNTVYLQMNSLKPEDTAVYYCAADPPSWQWFVGYSYDYWGQGTQVTVSS | low polyreactivity
22 | QVQLVESGGGLVQAGGSLRLICAASGRIFGPYAMGWYRQAPGKERELVASISYSGGSTYYADSVKGRFTISRDNAKNTVYLQMNSLKPDDTAVYYCAKGGYWRGYNYWGQGTQVTVSS | low polyreactivity

Row | Sequence | polyreactivity (PSR sort gate)
23 | QVQLLESGGGLVPARGSLRLSCAASGRIFPQYVMGWYRQAPGKEREFVATISYSGGRTYYADSVKGRFTISRDNAMNTVYVQMNSLKPEDTAVYDCAAGTSAGWADDYWGQGTQVTVSS | high polyreactivity
24 | QVQLVESGGGLVQAGGSLRLSCAASGFTFYRYAMGWYRQAPGKERELVAAISTSGVSTYYADSVKGRFTISRDNAKNTVYLQMNSLKPEDTAVYYCAKAGWRGSYIYYRFRVGYDSWGQGTQVTVSS | high polyreactivity
25 | QVKLVESGGGLVQAGGSLRLSCAASGLIFQKYAMGWYRQPPGKERELVAAISGGGRTYYADSVKGRFTISRDNSKNTVYLQMNSMKPEDTAVYYCAVYWYYLGYYYYYDFDYWGQGTQVTVSS | high polyreactivity
26 | QVQLVESGGGLVQAGGSLRLSCAASGSILGHYAMGWYRQAPGTERELVAAISWSGGSTYYADSVKGRFTISRDNAKNTVYLQMNSLKPEDTAVYYCNAAAILYTSDGSLYWYDYWGQGTQVTVSS | low polyreactivity
27 | QVQLVESGGGLVQAGGSLRLICAASGFIFSRYTMGWYRQAPGKERELVAAISKRGGSTYYADSVKGRFTISRDNAKNTVYLQMNSLKPEDTAVYYCAADRLPSGSLVEYWGQGTQVTVSS | high polyreactivity
28 | QVQLVESGGGLVQAGGSLRLSCAASGSTITGNTMGWYRQAPGKERELVAAITNGGSTYYADSVKGRFTISRDNAKNTVYLQMNSLKPEDTAVYYCAAESTFYGYDYWGQGTQVTVSS | high polyreactivity
29 | QVQLVESGGGLVQAGGSLRLRCAATGFISVTYAMGWYRQAPGKERELVAAITYSGGSTYYADSVKGRFTISRDNAKNTVYLQMNSLKPEDTAVYYCATEPQSDYSYDYWGQGTQVTVSS | low polyreactivity
30 | QVQLVESGGGLVQAGGSLRLSCAASGLIFYRNAMGWYRQAPGKERELVAAIRFSTGSTYYADSVKGRFTISRDNAKNTVYLEMNSLKPEDTAVYYCAAALPGYGDYYYWGQGTQVTVSS | high polyreactivity
31 | QVQLVESGGGLVQAGGSLRLSCAASGSTFWVYDMGWYRQAPGKERELVAAISRRGGRTYYADSVKGRFTISRDNAKNTVYLQMNSLKPEDTAVYYCNRRYTQPDTRQWYDYWGQGTQVTVSS | low polyreactivity
32 | QVQLVESGGGLVQAGGSLRLSCAASGFTFPYYTMGWYRQAPGKERELVAAITSSGGSTYYADSVKGRFTISRDNAKNTVYLQMNSLKPEDTAVYYCNAAVYAHRYIYGFDYWGQGTQVTVSS | high polyreactivity
33 | QVQLQESGGGLVQAGGSLRLSCAATGSIFYRLKMGWHRQAPGKERELVATIDPGSNTYYADSVKGSFTISRDNAKNTVYPQMYSLKPEDTAVYYCAVSAHWTIHYYYWGQGTQVTVSS | high polyreactivity
34 | QVQLVESGGGLVQAGGSLRLSCAASGSILLEYAMGWYRQAPGKERELVAAISRGGTTNYADSVKGRFTISRDNAKNTVYLQMNSLKPEDTAVYYCAAGKIGRRGHQNRLDLDYWGQGTQVTVSS | low polyreactivity
35 | QVQLVESGGGLVQAGGSLRLSCAASGFTFAHYAMGWYRPAPGKERELVAAISGSGSSTYYADSVKGRFTISRDYAKNSVYLKMNSLKPEDTAVYYCNVRWYFLYYYWGQGTQVTVSS | low polyreactivity
36 | QVQLVESGGGLVQAGGSLRLSSAASGLTFKGYAIGWYRQEPGKESELVAANNGSGGSTYYADSVKRRFTISRDNAKNTVYLQMNSLKPEDTAVYYCNAARGHPYPLSDNVDDYDYWGQGTQVTVSS | low polyreactivity
37 | QDQLVESGGGLVQAGGSLRLSCAASGITLQLNAMGWYIQAPGKEREFVARISISGGRTYYADSVKGRFTISRDNAKNTVYLQMNSLKPEDTAVYYCAARVGRGYREYGYWGQGTQVTVSS | high polyreactivity
38 | QVQLVESGGGLVQAGGSLRLRCAASGLTFRYYAMGWYRQAPGKERELVAAISRTGRTNYSDSVKGRFTISRDNAKNTVYLQMNSLKPEDTAVYYCAATGIYAKALLWYDYWGQGTQVTVSS | high polyreactivity
39 | QVQLVESGGGLVQAGGSLRLSCAASGSTFWYYAMGWYRQAPGKERELVAAITSSGSTYYADSVKGRFTISRDNAKNTVYLQMYSLKPEDTAVYYCAAEQWYGYASYDYWGQGTQVTVSS | high polyreactivity
40 | QVQLVESGGGLVQAGGSLRLSCAASGSTFKNNAMGWYRQAPGKEREFVASISKRGGSTYYADSEKGRFTISRDNAKNTVYLQMNSLKPEDTAVYYCAAEELRYGLYEYDYWGLGTQVTVSS | high polyreactivity
41 | QVQLVESGGGLVQAGGSLRLSCAASGLTLAWYAMGWYRQAPGKERELVAAISWSGDSTYYADSVKGRFTISRDNAKNTVYLQMNSLKPEDTEVYYCATRVYGGYGYWGQGTQVTVSS | high polyreactivity
42 | QVQLVESGGGLVQAGGSLRLSCAASGSIFVHYAMGWSRQAPGKERELVAAITTSGGSTYYADSVKGRFTISRDNAKNTVYLQMNSLKPEDTAVYYCNARAVRYPFTGNYWAQGTQVTVSS | high polyreactivity
43 | QVQLQESGGRLVQAGDSQRLSCASSGNIFRFTDMGWYRQAPGKERELVAAINAGSTTYYADSVKGRFTISRDNAKNTVYLQMNSLKPEDTAFYHCNDPPVYSSTRYGYWGQGTQVTVAS | high polyreactivity

Reference: the nanobody polyreactivity screen of Harvey et al. (2022)
